Test results taken from patent publication EP1073891B1, “METHOD OF PREDICTING RECEPTOR MODULATING ACTIVITY” (Duke University, priority 1998, dated 1999).

Columns and labels:
ERβ = ERβ (Homo sapiens, UniProt Q92731); assay: Phage ELISA / fingerprint on ER immobilized on biotinylated ERE (Examples 2.3-2.5); format: binding; set-up: purchased PanVera Corporation, Madison, WI; key: semiquantitative scale of 0 to 7+; 1+: semiquantitative scale of 0 to 7+; 2+: semiquantitative scale of 0 to 7+; 3+: semiquantitative scale of 0 to 7+; 4+: semiquantitative scale of 0 to 7+; 5+: semiquantitative scale of 0 to 7+; 6+: semiquantitative scale of 0 to 7+; semiquantitative scale of 0 to 7+; conditions: for binding activity, ERβ and Estradiol: ERβ and Estradiol (1 µM); for binding activity, ERβ and tamoxifen: ERβ and tamoxifen (4-OH tamoxifen, 1 µM)
Chain of ERβ (Q92731 whole entry): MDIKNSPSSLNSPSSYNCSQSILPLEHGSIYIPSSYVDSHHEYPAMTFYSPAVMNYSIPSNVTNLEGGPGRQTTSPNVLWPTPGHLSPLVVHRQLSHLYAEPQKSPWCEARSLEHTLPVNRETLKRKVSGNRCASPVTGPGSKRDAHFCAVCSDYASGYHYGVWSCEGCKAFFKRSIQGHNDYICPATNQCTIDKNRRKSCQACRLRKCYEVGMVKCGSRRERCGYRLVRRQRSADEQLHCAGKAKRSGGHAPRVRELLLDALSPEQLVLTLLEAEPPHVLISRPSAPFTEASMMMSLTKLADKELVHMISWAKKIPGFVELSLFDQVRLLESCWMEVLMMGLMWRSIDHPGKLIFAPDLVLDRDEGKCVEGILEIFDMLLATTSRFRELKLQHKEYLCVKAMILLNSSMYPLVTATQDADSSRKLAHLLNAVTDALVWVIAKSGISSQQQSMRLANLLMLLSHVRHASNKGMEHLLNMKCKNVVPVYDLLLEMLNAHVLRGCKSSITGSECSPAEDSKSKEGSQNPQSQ

ERα = biological target: T1, ERα (Homo sapiens, UniProt P03372); assay: as above; format: binding; set-up: purchased PanVera Corporation, Madison, WI; key to binding activity, ERα and buffer / binding activity, ERα and estradiol / binding activity, ERα and tamoxifen / binding of peptide, Class Specific Fingerprint on ERα: semiquantitative scale of 0 to 7+; 1+: semiquantitative scale of 0 to 7+; 2+: semiquantitative scale of 0 to 7+; 3+: semiquantitative scale of 0 to 7+; 4+: semiquantitative scale of 0 to 7+; 5+: semiquantitative scale of 0 to 7+; 6+: semiquantitative scale of 0 to 7+; semiquantitative scale of 0 to 7+; conditions: for binding activity, ERα and estradiol: ERα and estradiol (1 µM); for binding activity, ERα and tamoxifen: ERα and tamoxifen (4-OH tamoxifen, 1 µM)
T1 sequence (P03372 1-595): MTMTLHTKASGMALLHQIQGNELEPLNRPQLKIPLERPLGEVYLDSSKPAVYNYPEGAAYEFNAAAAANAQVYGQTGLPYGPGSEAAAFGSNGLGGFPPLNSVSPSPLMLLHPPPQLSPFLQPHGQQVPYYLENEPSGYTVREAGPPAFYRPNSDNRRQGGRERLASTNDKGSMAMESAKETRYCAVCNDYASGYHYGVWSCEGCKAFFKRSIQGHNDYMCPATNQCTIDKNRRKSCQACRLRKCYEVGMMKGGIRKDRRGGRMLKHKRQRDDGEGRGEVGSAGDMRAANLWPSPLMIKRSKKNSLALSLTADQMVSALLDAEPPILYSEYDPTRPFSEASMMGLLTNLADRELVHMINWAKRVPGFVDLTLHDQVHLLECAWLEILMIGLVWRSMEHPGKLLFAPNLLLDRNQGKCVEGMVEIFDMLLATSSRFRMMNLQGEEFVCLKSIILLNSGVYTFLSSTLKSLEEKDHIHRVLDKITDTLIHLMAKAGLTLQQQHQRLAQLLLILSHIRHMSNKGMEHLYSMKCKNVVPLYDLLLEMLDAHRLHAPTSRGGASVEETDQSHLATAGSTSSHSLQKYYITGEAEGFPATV

| Sequence | binding activity, ERβ and Estradiol (ERβ) | binding activity, ERβ and buffer (ERβ) | binding activity, ERβ and tamoxifen (ERβ) | binding activity, ERα and buffer (ERα) | binding activity, ERα and estradiol (ERα) | binding activity, ERα and tamoxifen (ERα) |
| --- | --- | --- | --- | --- | --- | --- |
| SSARPWWLQFEGSSR [Peptide 7t-β] | 7+ | 7+ | 7+ | 2+ | 2+ | 2+ |
| SSDLHRDCLGVWCLSR [Peptide 17t-β] | 7+ | 7+ | 7+ | 1+ | 2+ | 2+ |
| SSDLYSQMREFFQINLSR [Peptide 23t-β] | 6+ | 6+ | 7+ | 4+ | 4+ | 6+ |
| SSDTRSRLYELLSSSYTSR [Peptide 5E-β] | 7+ | 5+ | 2+ | 4+ | 6+ | 4+ |
| SSGLPPNFERMLKSR [Peptide 6b-β] | 2+ | 6+ | 2+ | 5+ | 3+ | 3+ |
| SSGPFYVGGMLWPADCLSR [Peptide 10t-β] | 2+ | 4+ | 7+ | 4+ | 3+ | 6+ |
| SSGPWLMHYLGGGSR [Peptide 7b-β] | 7+ | 7+ | 2+ | 2+ | 4+ | 3+ |
| SSGSSAGRLMMLLQDGVSR [Peptide 13E-β] | 6+ | 2+ | 1+ | 5+ | 4+ | 5+ |
| SSHCHTRLCSLLTSR [Peptide 15E-β] | 7+ | 4+ |  | 6+ | 6+ | 5+ |
| SSIKDFPNLISLLSR [Peptide 12E-β] | 7+ | 4+ | 1+ | 2+ | 2+ | 2+ |
| SSILERLLGGGSAETV [Peptide 9E-β] | 7+ | 4+ | 1+ | 3+ | 4+ |  |
| SSIPPRSWWLSQLSR [Peptide 19b-β] | 6+ | 7+ | 7+ | 5+ | 4+ | 4+ |
| SSISTYHMGEWFYAMLSSR [Peptide 22t-β] | 4+ | 5+ | 7+ | 3+ | 4+ | 6+ |
| SSKLYCLLDESYCSR [Peptide 21b-β] | 7+ | 7+ | 3+ | 6+ | 7+ | 3+ |
| SSLDLSQFPMTASFLRESR [Peptide 35E-β] | 6+ | 2+ | 1+ | 2+ | 2+ | 2+ |
| SSLKCLLNSNFCSR [Peptide 18E-β] | 7+ | 4+ | 1+ | 5+ | 6+ | 5+ |
| SSLKCLLQSSPQKQPFCSR [Peptide 19E-β] | 7+ | 4+ | 2+ | 4+ | 5+ | 3+ |
| SSLQAGSWLMHYLRGGDSR [Peptide 23E-β] | 7+ | 5+ | 2+ | 6+ | 6+ | 5+ |
| SSPGSREWFKDMLSR [Peptide 14t-β] | 2+ | 3+ | 7+ | 2+ | 2+ | 7+ |
| SSPTGHRLLESLLLNSNSR [Peptide 8E-β] | 7+ | 5+ | 1+ | 4+ | 6+ | 3+ |
| SSQEEWLLPWRLASR [Peptide 8t-β] | 5+ | 7+ | 5+ | 2+ | 2+ | 2+ |
| SSQVWPGPWRLVESR [Peptide 14b-β] | 7+ | 7+ | 7+ | 2+ | 2+ | 3+ |
| SSQWQAPWWYIDASR [Peptide 32E-β] | 7+ | 5+ | 2+ | 5+ | 4+ | 4+ |
| SSRCSSLLCEMLIQTKESR [Peptide 22E-β] | 7+ | 5+ | 2+ | 4+ | 5+ | 3+ |
| SSRGLLWDLLTKDSR [Peptide 1E-β] | 7+ | 5+ | 3+ | 5+ | 7+ | 5+ |
| SSRLLCLLDAGQCSR [Peptide 16E-β] | 7+ | 6+ | 2+ | 3+ | 6+ | 3+ |
| SSRLVPHSFWLDGLMHGSR [Peptide 21t-β] | 3+ | 3+ | 7+ | 3+ | 3+ | 6+ |
| SSRPSFTIPWWFDDPSRSR [Peptide 33E-β] | 7+ | 5+ | 2+ | 3+ | 3+ | 2+ |
| SSRTLLEHYLLGGSR [Peptide 20E-β] | 7+ | 3+ | 2+ | 5+ | 5+ | 4+ |
| SSRTLYCHLTSSNPEWCSR [Peptide 27E-β] | 7+ | 6+ | 2+ | 4+ | 6+ | 3+ |
